pEC50: −log10 of the molar value. Several values for one entry are separate records, joined by “and”; a condition that tells them apart may be missing. Equal values may be shown once. Read-outs that look alike come from different tables or passages of the source.

Test [1] addresses monkey CD3ε/δ-His (monkey) (UniProt Q95LI5). In words: ELISA, coated antigen, hybridoma screening. (In general: ELISA stands for enzyme-linked immunosorbent assay.)
Test [2] has as its target human CD3ε/δ-His (human) (UniProt P07766). In words: ELISA, coated antigen, hybridoma screening.
The target in test [3] is human CD3 on the cell surface (Jurkat cells, expanded human T cells, Jurkat-Lucia NFAT cells, human PBMC) (human) (UniProt P07766). In words: FACS, expanded human T cells. For orientation: Flow cytometry measures light scatter and fluorescence of single cells or particles in a stream.
Test [4] has the same target. Kind of test: FACS, Jurkat cells.
Test [5] deals with monkey CD3ε/δ-His (monkey) (UniProt Q95LI5). Kind of test: ELISA, coated antigen.
For test [6], the target named is monkey CD3ε protein (monkey) (UniProt Q95LI5). In words: ELISA, coated antigen.
Test [7] has as its target human CD3ε/δ-His (human) (UniProt P07766). Kind of test: ELISA, coated antigen.
Test [8] addresses recombinant human CD3ε-ECD His protein (human) (UniProt P07766). In words: ELISA, coated antigen.
The target in test [9] is human CD3 on the cell surface (Jurkat cells, expanded human T cells, Jurkat-Lucia NFAT cells, human PBMC) (human) (UniProt P07766). Kind of test: FACS, expanded human T cells. This is another data set of the same source.
Test [10] has as its target cynomolgus monkey CD3 on the surface of expanded monkey T cells (cynomolgus monkey) (UniProt Q95LI5). Kind of test: FACS, expanded monkey T cells.
Test [11] shares this target. In words: FACS, expanded monkey T cells, 20 nM antibody.
Test [12] has the same target. Kind of test: FACS, expanded monkey T cells. This is another data set of the same source.
Test [13] deals with human CD3 on the cell surface (Jurkat cells, expanded human T cells, Jurkat-Lucia NFAT cells, human PBMC) (human) (UniProt P07766). Kind of test: cell-based or functional assay.
For test [14] the target is unchanged. In words: cell-based or functional assay. The source holds these as a separate data set.
Test [15] has the same target. In words: FACS, Jurkat cells. The source holds these as a separate data set.
The target is the same in test [16]. In words: cell-based or functional assay. The source holds these as a separate data set.
Test [17] has the same target. In words: FACS, expanded human T cells. The source holds these as a separate data set.
The target is the same in test [18]. In words: FACS, Jurkat cells. This is another data set of the same source.
Test [19] has the same target. In words: cell-based or functional assay. The source holds these as a separate data set.
The target of test [20] is cynomolgus monkey CD3 on the surface of expanded monkey T cells (cynomolgus monkey) (UniProt Q95LI5). In words: FACS, expanded monkey T cells, 100 nM antibody.
Test [21] has the same target. In words: FACS, expanded monkey T cells. This is another data set of the same source.
The target in test [22] is recombinant human CD3ε-ECD His protein (human) (UniProt P07766). In words: ELISA, coated antigen. This is another data set of the same source.
For test [23], the target named is cynomolgus monkey CD3 on the surface of expanded monkey T cells (cynomolgus monkey) (UniProt Q95LI5). In words: FACS, expanded monkey T cells, 4 nM antibody.
Test [24] has as its target human CD3 on the cell surface (Jurkat cells, expanded human T cells, Jurkat-Lucia NFAT cells, human PBMC) (human) (UniProt P07766). In words: FACS, expanded human T cells. This is another data set of the same source.

human CD3ε/δ-His (human), sequence (P07766 23-126, stated change not applied, form in doubt, chain 1 of 2): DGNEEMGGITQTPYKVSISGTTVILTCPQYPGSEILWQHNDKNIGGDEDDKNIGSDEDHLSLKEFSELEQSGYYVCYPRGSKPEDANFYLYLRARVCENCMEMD
human CD3ε/δ-His (human), sequence (P04234 22-105, stated change not applied, form in doubt, chain 2 of 2, further chain): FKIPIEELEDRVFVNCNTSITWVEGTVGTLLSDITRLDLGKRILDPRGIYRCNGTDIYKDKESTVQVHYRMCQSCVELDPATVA
human CD3 on the cell surface (Jurkat cells, expanded human T cells, Jurkat-Lucia NFAT cells, human PBMC) (human), sequence (P07766 23-207, chain 1 of 3): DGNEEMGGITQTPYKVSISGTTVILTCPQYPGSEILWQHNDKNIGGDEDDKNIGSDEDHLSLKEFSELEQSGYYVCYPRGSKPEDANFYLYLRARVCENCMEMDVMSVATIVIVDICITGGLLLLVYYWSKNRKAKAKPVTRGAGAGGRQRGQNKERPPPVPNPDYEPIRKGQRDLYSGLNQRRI
human CD3 on the cell surface (Jurkat cells, expanded human T cells, Jurkat-Lucia NFAT cells, human PBMC) (human), sequence (P04234 22-171, chain 2 of 3, further chain): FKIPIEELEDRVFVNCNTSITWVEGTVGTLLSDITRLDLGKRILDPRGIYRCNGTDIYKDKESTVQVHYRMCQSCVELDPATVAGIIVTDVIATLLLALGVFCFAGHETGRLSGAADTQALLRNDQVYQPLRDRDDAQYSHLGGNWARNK
human CD3 on the cell surface (Jurkat cells, expanded human T cells, Jurkat-Lucia NFAT cells, human PBMC) (human), sequence (P09693 23-182, chain 3 of 3, further chain): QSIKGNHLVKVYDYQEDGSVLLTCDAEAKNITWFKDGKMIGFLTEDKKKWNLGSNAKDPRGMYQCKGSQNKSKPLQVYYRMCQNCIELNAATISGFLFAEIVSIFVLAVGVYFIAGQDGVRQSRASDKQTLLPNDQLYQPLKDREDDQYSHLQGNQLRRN
cynomolgus monkey CD3 on the surface of expanded monkey T cells (cynomolgus monkey), sequence (Q95LI5 22-198, chain 1 of 3): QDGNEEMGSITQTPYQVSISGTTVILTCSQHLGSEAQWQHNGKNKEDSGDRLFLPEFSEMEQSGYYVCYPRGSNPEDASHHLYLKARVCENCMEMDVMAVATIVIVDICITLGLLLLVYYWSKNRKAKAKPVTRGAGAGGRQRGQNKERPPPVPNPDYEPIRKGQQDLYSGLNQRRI
cynomolgus monkey CD3 on the surface of expanded monkey T cells (cynomolgus monkey), sequence (Q95LI8 22-171, chain 2 of 3, further chain): as the sequence (P04234 22-171, chain 2 of 3, further chain) above, with I5V, N15K, I20V, S32T, D33N, I34N, T64A, S74N, V83L, H141R counted along it
cynomolgus monkey CD3 on the surface of expanded monkey T cells (cynomolgus monkey), sequence (Q95LI7 23-181, chain 3 of 3, further chain): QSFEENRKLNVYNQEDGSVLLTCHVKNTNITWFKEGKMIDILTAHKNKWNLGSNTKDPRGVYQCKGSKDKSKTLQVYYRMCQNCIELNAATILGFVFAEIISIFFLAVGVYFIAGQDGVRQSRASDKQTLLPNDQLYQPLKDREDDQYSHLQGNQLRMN
monkey CD3ε/δ-His (monkey), sequence (Q95LI5 22-117, stated change not applied, form in doubt, chain 1 of 2): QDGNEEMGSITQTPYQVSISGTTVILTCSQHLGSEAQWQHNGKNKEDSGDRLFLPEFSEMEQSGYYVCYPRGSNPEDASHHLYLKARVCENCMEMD
monkey CD3ε/δ-His (monkey), sequence (Q95LI8 22-105, stated change not applied, form in doubt, chain 2 of 2, further chain): as the sequence (P04234 22-105, stated change not applied, form in doubt, chain 2 of 2, further chain) above, with I5V, N15K, I20V, S32T, D33N, I34N, T64A, S74N, V83L counted along it
recombinant human CD3ε-ECD His protein (human), sequence (P07766 23-126): as the sequence (P07766 23-126, stated change not applied, form in doubt, chain 1 of 2) above
monkey CD3ε protein (monkey), sequence (Q95LI5 22-117 limits assumed): as the sequence (Q95LI5 22-117, stated change not applied, form in doubt, chain 1 of 2) above

For the substance “anti-hel-mIgG1 (negative control antibody against Hen Egg Lysozyme)”, the OD450 in test [1] was 0.07 OD450 and 0.04 OD450 and 0.05 OD450; with human CD3ε/δ-His (human) [2], 0.05 OD450 and 0.04 OD450.

What is called pEC50 is −log10 of the EC50, conventionally taken in molar units. Consider “anti-hel-hIgG1 (negative control antibody against Hen Egg Lysozyme)”, for which the MFI Max in test [3] is 148 MFI; in test [4] it was 490 MFI; in [9], 124 MFI; in test [10], 87 MFI; in test [12] it was 1570 MFI; in test [15], 182 MFI. Besides, the MFI Max in [17] came to 823 MFI; in test [18], 151 MFI; in test [21], 195 MFI; in [24], 195 MFI. The Maximum fluorescence value Alexa 647 in test [4] is 108 MFI; in test [10] it was 299 MFI; in [17], 480 MFI. Also, the max-OD450 is 0.15 OD450 in test [5]; 0.16 OD450 in [6]; 0.09 OD450 with human CD3ε/δ-His (human) [7]; 0.11 OD450 in [8]; 0.09 OD450 in [22]. The values for the max MFI in [10] and in test [17] were 74 MFI and 2250 MFI, respectively. This substance displayed an MFI at antibody concentration 20 nM in test [11] of 80 MFI. The Maximum response value (RLU) stood at 4250 RLU in test [13], 2330 RLU in [14], 1830 RLU in test [16] and 3780 RLU in [19]. Moreover, the pEC50 in [17] is 7.70. In addition, in test [20], the MFI at antibody concentration 100 nM is 170 MFI. Further, the MFI at antibody concentration 4 nM in test [23] was determined as 64 MFI.

The record behind these values is US20250136687A1.
